Tests used:
Experiment in all cases: cell-based or functional assay
[1] = biological target: HIV-1 Env of isolate CNE20 (HIV-1)
[2] = biological target: HIV-1 Env of isolate CH64 (HIV-1)
[3] = biological target: HIV-1 Env of isolate CNE40 (HIV-1)
[4] = biological target: HIV-1 Env of isolate CNE14 (HIV-1)
[5] = biological target: HIV-1 Env of isolate KNH1088.EC5 (HIV-1)
[6] = biological target: HIV-1 Env of isolate CH114 (HIV-1)
[7] = biological target: HIV-1 Env of isolate CNE46 (HIV-1)
[8] = biological target: HIV-1 Env of isolate GX2010.36 (HIV-1)
[9] = biological target: HIV-1 Env of isolate CNE47 (HIV-1)
[10] = biological target: HIV-1 Env of isolate 57128.VRC18 (HIV-1)
[11] = biological target: HIV-1 Env of isolate CH110 (HIV-1)
[12] = biological target: HIV-1 Env of isolate CNE4 (HIV-1)

Substance: D1D2Fc (from UniProt P01730 26-203) (Fc fusion)
- neutralization IC50 [1]: 65 nM
- neutralization IC90 [1]: > 250 nM
- neutralization IC50 [2]: 48 nM
- neutralization IC90 [2]: > 250 nM
- neutralization IC50 [3]: 0.06 nM
- neutralization IC90 [3]: 0.5 nM
- neutralization IC50 [4]: 105 nM
- neutralization IC90 [4]: 248 nM
- IC50, neutralization in TZM-bl cell-based assay [5]: > 250 nM
- IC90, neutralization in TZM-bl cell-based assay [5]: > 250 nM
- neutralization IC50 [6]: 23 nM
- neutralization IC90 [6]: 198 nM
- neutralization IC50 [7]: 99 nM
- neutralization IC90 [7]: > 250 nM
- neutralization IC50 [8]: 12 nM
- neutralization IC90 [8]: > 250 nM
- neutralization IC50 [9]: 152 nM
- neutralization IC90 [9]: > 250 nM
- IC90, neutralization in TZM-bl cell-based assay [10]: 41 nM
- neutralization IC50 [11]: 28 nM
- neutralization IC90 [11]: > 250 nM
- neutralization IC50 [12]: 3.9 nM
- neutralization IC90 [12]: 24 nM

Source: patent US20160039904A1, “STABILIZED SINGLE HUMAN CD4 DOMAINS AND FUSION PROTEINS” (priority 2013, published 2016)
